Here are results for one substance from publication PMC11040149.

This experiment deals with RNA ligase from Palaeococcus pacificus (PpaRnl), wild-type (Palaeococcus pacificus). Kind of experiment: SEC.

For “RNA ligase from Palaeococcus pacificus (PpaRnl), wild-type (enzyme)”, the stoichiometry N is 2.

For orientation: stoichiometry N means a count of units in the complex or per binding partner.
